Data reported in patent US20140220033A1, “Administration of an Anti-Activin-A Compound to a Subject” (Santa Maria Biotherapeutics, Inc., priority 2013, published 2014).

B1: recombinant activin-A: Recombinant activin-A produced using mammalian expression system (Amgen Inc); stimulus in cell cultures (protein)
chain: GLECDGKVNICCKKQFFVSFKDIGWNDWIIAPSGYHANYCEGECPSHIAGTSGSSLSFHSTVINHYRMRGHSPFANLKSCCVPTKLRPMSMLYYDDGQNIIKKDIQNMIVEECGCS

Columns and labels:
[1] = tested on: TOV-21G ovarian cancer xenografts; assay: TOV-21G ovarian cancer xenograft growth in nude mice; assay type: in vivo, mouse
Method: 5×10^6 TOV-21G ovarian cancer cells were implanted subcutaneously into individual female athymic nu/nu mice (Harlan). Treatment was initiated at day 12 after tumor implantation, when the average tumor volume reached approximately 150 mm^3. The mice received PBS, sActRIIB (30 mg/kg, SC, 1×/week) or activin-A antibody (30 mg/kg, SC, 2×/week). In a separate chemotherapy combination experiment, the mice were treated with PBS, sActRIIB (10 mg/kg, SC, 1×/week), 5-FU (50 mg/kg, IP, 3 cycles, 4 daily injections per cycle) or sActRIIB and 5-FU combination at the same doses above.
For all xenograft experiments, the tumor sizes were measured longitudinally by using an electronic caliper Immediately prior to the 1st dose, the tumor-bearing mice were randomized to ensure even distribution in tumor sizes across different groups. Tumor volumes (mm^3) were calculated as tumor length (mm)×tumor width (mm)×tumor height (mm) Tumor weights were determined by necropsy.
In another experiment, athymic nude mice received TOV-21G xenografts in the abdominal flank. After 14 days, subcutaneous hu-sActRIIB-Fc was administered weekly alone or in combination with 5-FU.

[2] = tested on: VEGF transcripts; assay: VEGF mRNA in cell cultures (real-time RT-PCR); assay type: cell-based, human, bovine; conditions: TOV-21G, BAEC, MRC-5, CCD-Lu, U937 cultures treated with recombinant activin-A, without or with sActRIIB; FIG. 16A
[3] = tested on: VEGF; assay: VEGF release into culture medium (ELISA); assay type: cell-based, human; conditions: TOV21G, MRC-5, CCD-Lu and TPH-1 cells treated with activin-A, without or with sActRIIB; FIG. 17A
Method: (§1) The serum VEGF levels in inh-KO mice were measured by using immunoassay kit (R&D Systems), and the levels of human VEGF and Ang-1 in cell line culture medium were quantified using ELISA kits purchased from Invitrogen (VEGF) and R&D Systems (Ang-1), by following the manufacturers' recommended protocols.

[4] = tested on: activin-A (βA) mRNA; assay: Endogenous activin-A (βA) mRNA in cell cultures (real-time RT-PCR); assay type: cell-based, human, bovine; conditions: TOV21G, BAEC, MRC-5, CCD-Lu, U937 and THP-1 cultures treated with recombinant activin-A, without or with sActRIIB; FIG. 18
[5] = tested on: Ang-1; assay: Ang-1 release into culture medium (ELISA); assay type: cell-based, human; conditions: MRC-5 and CCD-Lu cells treated with activin-A, without or with sActRIIB; FIG. 17B
Method: as §1

[6] = tested on: Ang-1 mRNA; assay: Ang-1 mRNA in cell cultures (real-time RT-PCR); assay type: cell-based, human, bovine; conditions: BAEC, MRC-5 and CCD-Lu cultures treated with recombinant activin-A, without or with sActRIIB; FIG. 16B

Molecule | tumor growth reduction ([1]; 52 days after tumor cell injection, versus vehicle-treated tumor-bearing group, p<0.0001, weekly SC hu-sActRIIB-Fc from day 14, alone or with 5-FU) | rate of tumor growth of TOV-21G xenografts ([1]; chemotherapy combination experiment, sActRIIB 10 mg/kg SC 1x/week, 5-FU 50 mg/kg IP 3 cycles, alone or together, FIG. 13) | levels of VEGF transcripts [2] | release of VEGF into the culture medium [3] | endogenous βA mRNA expression [4] | release of Ang-1 into the culture medium [5] | levels of Ang-1 mRNA [6]
O=c1[nH]cc(F)c(=O)[nH]1 [5-FU, 5-Fluorouracil, reference compound] | 47% | decreased the rate of tumor growth significantly |  |  |  |  | 
B1 |  |  | marked increases | increased the release | markedly upregulated | increased the release | marked increases
